Results on five molecules are retold here after patent publication US20260347439 (published 2026).

Like-named read-outs stand apart in the source and are kept apart here.

The target in assay [1] is T1, RSV A2 pre-F (Respiratory syncytial virus A2). The assay is described as follows: BLI. In general terms: Biolayer interferometry detects binding as a change in optical thickness at a sensor tip.
In assay [2] the target is T1, RSV A2 pre-F. Briefly: ELISA. Background: An ELISA detects its analyte on a solid surface through an enzyme-linked reagent.
For assay [3], the target named is T1, RSV A2 pre-F. Briefly: BLI. The source holds these as a separate data set.
The target in assay [4] is T1, RSV A2 pre-F. Briefly: ELISA. This is another data set of the same source.

B1: F6-125 (antibody, V domains shown)
VH: QLQLVQSGTEVKKPGASVKVSCKASGYTFSDNAINWVRQAPGQGLEWLGWITANNGNTNYAQKIQGRVTMTTDTSTSTVYMELRSLGSDDTAVYYCAREVVNYGLGSLHFDYWGQGTLVTVSS
VL: SYELTQPPSVSVSPGQTVSISCSGDKLGNDYASWYQQKPGQSPLLVIYEDAKRPSGIPERFSGSNSGNTATLTISGTQAMDDADYYCQAWDGTTVIFGGGTKLTVL
As usually defined, the Kd is the concentration at which binding is half-saturated. Broadly, the EC50 is the concentration at which the effect is half-maximal. The molecule B1 yielded a Kd with RSV A2 pre-F [1] of less than 0.001 nM. The molecule also showed an EC50 with RSV A2 pre-F [2] of 0.0144 mg/L.

B2: F6-18 (antibody, V domains shown)
VH: EEQLVESGGGLVRPGGSLRLSCVASGFSVSDYGMHWVRQAPGRGLEYVSAIRSHGDGTYYVNSVKGRFIISRDNSKNTLYLQMGSLSAEDMAVYYCARDRVWAHDYDDTAWLDAFDLWGQGTTVIVSS
VL: DIQMTQSPSTLSASVGDKVTITCRASQSVGSLLAWYQQKPGKAPKLLIYDASNLQRGVPSRFSGSGSGTEFTLTISSLQPDDFATYYCQQYKSHSPPFGQGTKLEIK
Molecule B2 yielded a dissociation constant (Kd) with RSV A2 pre-F [3] of 0.0805 nM. Further, in the assay with RSV A2 pre-F [4], a half-maximal effect (EC50) was put at 0.016 mg/L.

B3: F6-10 (antibody, V domains shown)
VH: DALLLQSGGGLMQPGGSLRLSCAASEFTFNIHAMTWVRQSPGKGLEWVSGISSTGEGTYYTDSVKGRFTISRDNSKSTLYLQMNSLRAEDTATYFCARYSFRYGELRGTFDIWGQGVLVSVSS
VL: DIQMTQTPSTLSASVGDRVIITCRASQSVGDSVAWFQQKPGRAPKLLIYDTTNLERGVPSRFSGSFSGTAFTLTITRLQPDDFATYYCQQYDESWTFGQGTKVEVK
Molecule B3 showed a Kd with RSV A2 pre-F [1] of 0.994 nM. In the assay with RSV A2 pre-F [2], this molecule came in with a 50% effective concentration (EC50) of 0.0307 mg/L.

B4: MEDI8897 (antibody, V domains shown)
VH: QVQLVQSGAEVKKPGSSVMVSCQASGGLLEDYIINWVRQAPGQGPEWMGGIIPVLGTVHYGPKFQGRVTITADESTDTAYMELSSLRSEDTAMYYCATETALVVSETYLPHYFDNWGQGTLVTVSS
VL: DIQMTQSPSSLSAAVGDRVTITCQASQDIVNYLNWYQQKPGKAPKLLIYVASNLETGVPSRFSGSGSGTDFSLTISSLQPEDVATYYCQQYDNLPLTFGGGTKVEIKR
Consider B4, for which the figures for the Kd with RSV A2 pre-F [3] and with RSV A2 pre-F [1] were 0.122 nM and 0.379 nM, respectively. For the same molecule, the EC50 in the assay with RSV A2 pre-F [2] came out at 0.0313 mg/L; with RSV A2 pre-F [4], 0.0146 mg/L.

B5: F6-113 (antibody, V domains shown)
VH: QVQLQQWGAGLLKPSETLSLTCAVDGASVSDDDWTWIRQSPGKGLEWIGQIDQTGSFNYNPSLRSRVTISPDTSKNHFSLSLTSVTAADTALYYCARGGLVVTDVGQGWDAFDVWGQGTMVTVSS
VL: DIQLTQSPSSVSASVGDRITITCRASQDIDNWLAWYQQKPGEAPKLLIYAASTLQSGVPSRFSGSGAGTEFTLTITSLQPEDFAGYFCQQGDSFPLTFGGGTKVDIK
In the assay with RSV A2 pre-F [1], B5 yielded a Kd of less than 0.001 nM. Also, the concentration for a half-maximal effect (EC50) with RSV A2 pre-F [2] was determined as 0.0133 mg/L.
